Positions count from the first letter of the chain named. Names may count otherwise. Values belong to the binder of their own block, whether it stands above or below them.
What was measured:
[1] = biological target: T1, hTIGIT mutant L65A (human, UniProt Q495A1); experiment: SPR (BIACORE) KD normalized to WT, N=2
T1 sequence (TIGIT, looked up): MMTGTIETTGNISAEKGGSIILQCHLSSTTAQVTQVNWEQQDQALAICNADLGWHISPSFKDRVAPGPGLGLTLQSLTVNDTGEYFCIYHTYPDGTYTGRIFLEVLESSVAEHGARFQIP

[2] = biological target: T2, hTIGIT mutant E60A (human, UniProt Q495A1); experiment: SPR (BIACORE) KD normalized to WT, N=2
T2 sequence (TIGIT, looked up): T1 sequence (TIGIT, looked up) with E39A, A44L

[3] = biological target: T3, hTIGIT mutant T117A (human, UniProt Q495A1); experiment: SPR (BIACORE) KD normalized to WT, N=2
T3 sequence (TIGIT, looked up): T1 sequence (TIGIT, looked up) with A44L, T96A

[4] = biological target: T4, hTIGIT mutant Y113A (human, UniProt Q495A1); experiment: SPR (BIACORE) KD normalized to WT, N=2
T4 sequence (TIGIT, looked up): T1 sequence (TIGIT, looked up) with A44L, Y92A

[5] = biological target: T5, hTIGIT mutant H111A (human, UniProt Q495A1); experiment: SPR (BIACORE) KD normalized to WT, N=2
T5 sequence (TIGIT, looked up): T1 sequence (TIGIT, looked up) with A44L, H90A

[6] = biological target: T6, hTIGIT mutant Q56A (human, UniProt Q495A1); experiment: SPR (BIACORE) KD normalized to WT, N=2
T6 sequence (TIGIT, looked up): T1 sequence (TIGIT, looked up) with Q35A, A44L

[7] = biological target: T7, hTIGIT mutant Q53A (human, UniProt Q495A1); experiment: SPR (BIACORE) KD normalized to WT, N=2
T7 sequence (TIGIT, looked up): T1 sequence (TIGIT, looked up) with Q32A, A44L

[8] = biological target: T8, human TIGIT protein (human, UniProt Q495A1 22-141, limits assumed); experiment: SPR (BIACORE) KD normalized to WT, N=2
T8 construct: Recombinant protein (Genentech) used in ELISA screening and as SPR analyte; also called TIGIT antigen
T8 sequence: T1 sequence (TIGIT, looked up) with A44L

[9] = biological target: T9, hTIGIT mutant I68A (human, UniProt Q495A1); experiment: SPR (BIACORE) KD normalized to WT, N=2
T9 sequence (TIGIT, looked up): T1 sequence (TIGIT, looked up) with A44L, I47A

[10] = biological target: T10, hTIGIT mutant N70A (human, UniProt Q495A1); experiment: SPR (BIACORE) KD normalized to WT, N=2
T10 sequence (TIGIT, looked up): T1 sequence (TIGIT, looked up) with A44L, N49A

[11] = biological target: T8, human TIGIT protein; experiment: SPR, captured mAb
[12] = biological target: T11, cynomolgus monkey (cyno) TIGIT protein (cynomolgus monkey, UniProt A0A7N9I9V4 89-209); experiment: SPR, captured mAb
T11 sequence (A0A7N9I9V4 entry or part of it): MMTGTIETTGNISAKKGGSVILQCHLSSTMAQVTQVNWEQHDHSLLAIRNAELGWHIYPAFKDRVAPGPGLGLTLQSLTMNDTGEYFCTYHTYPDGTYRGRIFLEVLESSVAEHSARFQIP

[13] = biological target: T1, hTIGIT mutant L65A; experiment: SPR (BIACORE), N=2
[14] = biological target: T2, hTIGIT mutant E60A; experiment: SPR (BIACORE), N=2
[15] = biological target: T3, hTIGIT mutant T117A; experiment: SPR (BIACORE), N=2
[16] = biological target: T4, hTIGIT mutant Y113A; experiment: SPR (BIACORE), N=2
[17] = biological target: T5, hTIGIT mutant H111A; experiment: SPR (BIACORE), N=2
[18] = biological target: T6, hTIGIT mutant Q56A; experiment: SPR (BIACORE), N=2
[19] = biological target: T7, hTIGIT mutant Q53A; experiment: SPR (BIACORE), N=2
[20] = biological target: T8, human TIGIT protein; experiment: SPR (BIACORE), N=2
[21] = biological target: T9, hTIGIT mutant I68A; experiment: SPR (BIACORE), N=2
[22] = biological target: T10, hTIGIT mutant N70A; experiment: SPR (BIACORE), N=2
[23] = biological target: T8, human TIGIT protein; experiment: SPR, against h7E7.L1H1 (implied)
Description: (§1) Briefly, a series S CM5 biosensor chip was activated with N-ethyl-N′-(3-dimethylaminopropyl)-carbodiimide hydrochloride (EDC) and N-hydroxysuccinimide (NHS) reagents according to the supplier's (GE Healthcare Biosciences, Piscataway, N.J.) instructions, and a human antibody capture kit was applied to couple goat anti-human Fc IgGs in order to achieve approximately 10,000 response units (RU) on each flow cell, followed by blocking un-reacted groups with 1M ethanolamine.
(§2) (flow rate: 30 μl/min) with no regeneration between injections. The sensorgrams were recorded and evaluated by BIAcore™ T200 Evaluation Software (version 2.0) after subtraction of reference cell signal. Association rates (kₒₙ) and dissociation rates (koff) were calculated using a simple one-to-one Langmuir binding model. The equilibrium dissociation constant (KD) was calculated as the ratio koff/kₒₙ.
(§3) The first humanized versions, h6B2, L1H1, h10A5.L1H1, h7E7, L1H1, and h15C8.L1H1, which contain both rat CDRs and framework residues at Vernier positions, and the fully humanized versions, h6B2.L2H5, h10A5.L4H4, h7E7.L5H9, and h15C8.L5H9, which contain only rat CDRs were subject to BIAcore affinity measurement by comparison with original rat antibodies, rat6B2, rat10A5, rat7E7 and rat 15C8. For binding affinity determinations of TIGIT antibodies against human TIGIT, cynomolgus monkey TIGIT and human alanine-scanned TIGIT mutants by single-cycle kinetics, Surface Plasmon Resonance (SRP) measurement with a BIACORE™-T200 instrument was used, as described above.

[24] = biological target: T11, cynomolgus monkey (cyno) TIGIT protein; experiment: SPR, against h7E7.L1H1 (implied)
Description: as §1, §2, §3

[25] = biological target: T8, human TIGIT protein; experiment: SPR, against h15C8.L1H1 (implied)
Description: as §1, §2, §3

[26] = biological target: T11, cynomolgus monkey (cyno) TIGIT protein; experiment: SPR, against h15C8.L1H1 (implied)
Description: as §1, §2, §3

B1: h6B2.L2H5 (antibody, V domains shown)
VH: EVTLKESGPALVKPTQTLTLTCTFSGFSLSTYGMGVSWIRQPPGKALEWLASIWWNGNTYYNPSLKSRLTITKDTSKNQVVLTMTNMDPVDTATYYCAHTGGAVITWFAYWGQGTLVTVSS
VL: DIQMTQSPSSLSASVGDRVTITCKASQSVGKNIAWYQQKPGKAPKLLIYYASNRYTGVPSRFSGSGSGTDFTFTISSLQPEDIATYYCQHIYNSPYPFGQGTKVEIK
notes: Fully humanized version; FR/HVR pieces in order
Binding affinity drop vs. WT [1]: 4.3 fold
Binding affinity drop vs. WT [2]: 3.4 fold
Binding affinity drop vs. WT [3]: 1.6 fold
Binding affinity drop vs. WT [4]: 3.6 fold
Binding affinity drop vs. WT [5]: 1.9 fold
Binding affinity drop vs. WT [6]: 1.9 fold
Binding affinity drop vs. WT [7]: 1.3 fold
Binding affinity drop vs. WT [8]: 1 fold
Binding affinity drop vs. WT [9]: 16.4 fold
Binding affinity drop vs. WT [10]: 4 fold
Kd [11]: 0.48 nM
koff [11]: 0.00222 s⁻¹
kon [11]: 4.65e+06 M⁻¹ s⁻¹
Kd [12]: 0.97 nM
koff [12]: 0.00124 s⁻¹
kon [12]: 1.28e+06 M⁻¹ s⁻¹
Kd [13]: 3 nM
Kd [14]: 2.4 nM
Kd [15]: 1.1 nM
Kd [16]: 2.5 nM
Kd [17]: 1.3 nM
Kd [18]: 1.3 nM
Kd [19]: 0.9 nM
Kd [20]: 0.7 nM
Kd [21]: 11.5 nM
Kd [22]: 2.8 nM

B2: h7E7.L1H2 (antibody, V domains shown)
VH: EVQLVQSGAEVKKPGASVKVSCKASGYTFTEYSIYWVRQAPGQRLEWIGRIDPKNGRTYYVDKFKNRATLTADTSASTAYMELSSLRSEDTAVYFCTRIYGFYFDFWGQGTLVTVSS
VL: DIQLTQSPSFLSASVGDRVTITCKGSQNVNKYLVWYQQKPGKAPKLLIYNTDNLQSGIPSRFSGSGSGTEYTLTISSLQPEDFATYFCYQYNNGFTFGQGTKVEIK
notes: VH: I47W against h7E7.L1H1; FR/HVR pieces
fold drop in binding affinity [23]: > 100 fold
fold drop in binding affinity [24]: > 100 fold

B3: h7E7.L5H9 (antibody, V domains shown)
VH: B2 VH with I48M, A68V, L70I, A72R, F95Y, T97A
VL: B2 VL with I58V, Y71F, F87Y
notes: Fully humanized version; FR/HVR pieces
Kd [11]: > 100 nM
Kd [12]: > 100 nM
fold drop in binding affinity [23]: > 100 fold
fold drop in binding affinity [24]: > 100 fold

B7: h7E7.L1H9 (antibody, V domains shown)
VH: B2 VH with I48M, A68V, L70I, A72R, F95Y, T97A
VL: B2 VL
notes: VH: all seven Vernier residues back to human; FR/HVR pieces
fold drop in binding affinity [23]: > 100 fold
fold drop in binding affinity [24]: > 100 fold

The next lines start with the values.

fold drop in binding affinity [25]: > 100 fold
fold drop in binding affinity [26]: > 100 fold
Kd [11]: > 100 nM
Kd [12]: > 100 nM
B4: h15C8.L5H9 (antibody, V domains shown)
VH: B2 VH with Y32H, I48M, Y60F, A68V, L70I, A72R, F95Y, T97A, Y100D
VL: B2 VL with N50S, I58V, Y71F, F87Y
notes: as for B3

fold drop in binding affinity [25]: > 100 fold
fold drop in binding affinity [26]: > 100 fold
B5: h15C8.L1H3 (antibody, V domains shown)
VH: B2 VH with Y32H, V37L, Y60F, A72T, T97A, Y100D
VL: B2 VL with N50S
notes: VH: I47W against h15C8.L1H1; FR/HVR pieces

fold drop in binding affinity [25]: > 100 fold
fold drop in binding affinity [26]: > 100 fold
B6: h15C8.L1H9 (antibody, V domains shown)
VH: B2 VH with Y32H, I48M, Y60F, A68V, L70I, A72R, F95Y, T97A, Y100D
VL: B2 VL with N50S
notes: as for B7
